Reference: patent US8236764

Test system: Human FV isolated from plasma
Sequence (chain, as listed by the source): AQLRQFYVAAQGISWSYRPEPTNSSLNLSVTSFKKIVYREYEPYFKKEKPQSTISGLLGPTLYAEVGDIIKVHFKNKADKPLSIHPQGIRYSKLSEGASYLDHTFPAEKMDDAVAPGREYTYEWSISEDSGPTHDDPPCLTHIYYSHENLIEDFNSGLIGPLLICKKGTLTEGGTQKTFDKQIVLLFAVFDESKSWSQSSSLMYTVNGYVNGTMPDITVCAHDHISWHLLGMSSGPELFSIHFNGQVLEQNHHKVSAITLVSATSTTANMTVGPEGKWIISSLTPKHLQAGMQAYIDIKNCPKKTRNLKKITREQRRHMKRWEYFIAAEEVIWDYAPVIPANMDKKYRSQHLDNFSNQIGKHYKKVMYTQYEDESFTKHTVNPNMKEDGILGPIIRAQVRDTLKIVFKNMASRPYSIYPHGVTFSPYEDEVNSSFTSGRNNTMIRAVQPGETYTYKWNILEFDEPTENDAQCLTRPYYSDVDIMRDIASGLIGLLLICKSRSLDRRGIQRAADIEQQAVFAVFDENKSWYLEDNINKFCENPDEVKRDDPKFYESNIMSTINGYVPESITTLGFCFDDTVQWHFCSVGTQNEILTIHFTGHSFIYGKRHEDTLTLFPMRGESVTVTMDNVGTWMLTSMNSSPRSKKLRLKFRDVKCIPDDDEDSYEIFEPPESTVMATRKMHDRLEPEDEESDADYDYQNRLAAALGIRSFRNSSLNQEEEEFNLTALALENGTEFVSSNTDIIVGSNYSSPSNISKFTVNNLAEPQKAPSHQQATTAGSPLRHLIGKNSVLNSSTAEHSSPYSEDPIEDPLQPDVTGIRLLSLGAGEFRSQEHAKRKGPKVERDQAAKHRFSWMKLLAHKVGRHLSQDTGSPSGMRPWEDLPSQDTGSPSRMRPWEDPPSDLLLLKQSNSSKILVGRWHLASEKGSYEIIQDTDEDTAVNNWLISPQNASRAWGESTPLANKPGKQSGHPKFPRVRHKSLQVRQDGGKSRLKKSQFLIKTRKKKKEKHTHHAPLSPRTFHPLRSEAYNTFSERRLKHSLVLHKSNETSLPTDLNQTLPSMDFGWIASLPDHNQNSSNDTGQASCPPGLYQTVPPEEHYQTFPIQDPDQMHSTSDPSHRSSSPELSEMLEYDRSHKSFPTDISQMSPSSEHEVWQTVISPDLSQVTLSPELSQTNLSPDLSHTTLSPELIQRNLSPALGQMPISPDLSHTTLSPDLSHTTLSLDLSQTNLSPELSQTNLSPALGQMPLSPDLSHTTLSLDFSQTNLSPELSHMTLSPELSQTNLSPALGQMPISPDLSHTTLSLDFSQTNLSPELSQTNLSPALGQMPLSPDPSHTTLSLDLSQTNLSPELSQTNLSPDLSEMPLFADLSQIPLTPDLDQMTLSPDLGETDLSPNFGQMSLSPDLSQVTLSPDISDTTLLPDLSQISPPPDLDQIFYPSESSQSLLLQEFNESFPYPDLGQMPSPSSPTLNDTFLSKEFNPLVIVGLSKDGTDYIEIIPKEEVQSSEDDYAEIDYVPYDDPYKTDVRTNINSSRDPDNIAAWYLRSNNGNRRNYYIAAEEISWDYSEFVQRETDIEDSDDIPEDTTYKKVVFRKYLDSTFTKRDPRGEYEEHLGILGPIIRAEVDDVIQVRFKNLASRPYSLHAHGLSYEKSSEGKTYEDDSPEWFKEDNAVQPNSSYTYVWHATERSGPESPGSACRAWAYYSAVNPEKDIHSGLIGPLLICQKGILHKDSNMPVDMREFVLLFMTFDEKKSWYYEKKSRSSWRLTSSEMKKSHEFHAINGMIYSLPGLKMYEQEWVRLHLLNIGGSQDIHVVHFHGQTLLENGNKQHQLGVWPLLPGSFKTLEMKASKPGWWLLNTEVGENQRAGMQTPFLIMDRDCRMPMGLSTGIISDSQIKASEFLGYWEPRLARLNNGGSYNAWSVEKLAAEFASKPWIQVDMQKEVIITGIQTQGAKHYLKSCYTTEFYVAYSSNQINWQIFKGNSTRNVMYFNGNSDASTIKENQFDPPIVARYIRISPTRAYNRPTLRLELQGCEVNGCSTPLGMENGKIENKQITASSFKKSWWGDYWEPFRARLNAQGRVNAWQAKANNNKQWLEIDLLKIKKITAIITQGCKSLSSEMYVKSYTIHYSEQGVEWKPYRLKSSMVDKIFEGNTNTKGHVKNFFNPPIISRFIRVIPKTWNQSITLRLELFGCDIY

human thrombin
activation of FV (cofactor activity by PT-based assay using FV-deficient plasma; cleavage by SDS-PAGE): murine thrombin activates human FV in a similar fashion to human thrombin

murine thrombin
activation of FV (cofactor activity by PT-based assay using FV-deficient plasma; cleavage by SDS-PAGE): murine thrombin activates human FV in a similar fashion to human thrombin
